The text below walks through data of patent US20240123029A1.

In general, pKd refers to the negative decadic logarithm of the Kd, by convention in mol/L. Low values mean a high Kd, high ones a low Kd. In general, koff refers to the rate constant with which the complex falls apart. Broadly, the kon is the second-order rate constant of association.

pKd: −log10 of the molar value.

The test has as its target SARS-CoV-2 S protein trimer, His Tag (in house, EXPI293F cells) (SARS-CoV-2) (UniProt P0DTC2).

Chain of Recombinant human mannose binding lectin (MBL) (P11226 21-248 limits assumed): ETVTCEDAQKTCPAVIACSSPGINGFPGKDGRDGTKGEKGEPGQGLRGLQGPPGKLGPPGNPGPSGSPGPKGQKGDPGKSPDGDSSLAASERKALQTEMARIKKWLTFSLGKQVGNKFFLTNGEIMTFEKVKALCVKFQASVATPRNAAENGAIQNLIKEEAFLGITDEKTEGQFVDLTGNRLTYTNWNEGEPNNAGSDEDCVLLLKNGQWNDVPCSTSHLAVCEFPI

“Recombinant human mannose binding lectin (MBL) (from UniProt P11226 21-248)”: the pKd was 7.47, the koff came to 0.00073 s⁻¹ and the kon was 21000 M⁻¹ s⁻¹.
